From patent publication US20230414780A1 (VECT HORUS, published 2023)
Numbering of substitutions follows the chain as printed.

B1: C5^V16h20 (VHH)
VHH: EVQLVESGGGVVQPGGSLRLSCAASGTDFSINFIRWYRQAPGKGLEFVAGFTATGNTNYADSVKGRFTISRDNAKNAVYLQMNSLRPEDTAVYYCYILDKWGQGTQVTVSS
B2: C5^V30 (VHH)
VHH: EVQLVESGGGVVQPGGSLKLSCVASGTDKSINFIRWYRQAPGKQREFVAGFTATGNTNYADSMKGRFTISRDNTKNAVYLQIDSLKPEDTAVYYCYMLDKWGQGTQVTVSS
B3: C5^V32 (VHH)
VHH: B2 VHH with K29F, R38S, F67L, D99G
B4: C5^V31 (VHH)
VHH: B2 VHH with K29R
B5: B8^V12 (VHH)
VHH: EVQLVESGGGVVQPGGSLRLSCAASGEIFYINFMRWYRQAPGKQREWVAGFTRDGSTNYPDSAKGRFTISRDNAKNTVYLQIDSLKPEDTAVYYCYMLDTWGQGTQVTVSS
B6: B8^V29 (VHH)
VHH: B5 VHH with Y30S, L98A
B7: B8^V39 (VHH)
VHH: B5 VHH with Y30K
B8: B8^V27 (VHH)
VHH: B5 VHH with Y30S, N58V
B9: B8^V36 (VHH)
VHH: B5 VHH with Y30S, F33V
B10: B8^V33 (VHH)
VHH: B5 VHH with Y30S, D99K
B11: B8^V37 (VHH)
VHH: B5 VHH with Y30S, R71E, D99R
B12: B8^V38 (VHH)
VHH: B5 VHH with F29R, Y30S, D54T
B13: B8^V32 (VHH)
VHH: B5 VHH with F29R, Y30S
B14: B8^V35 (VHH)
VHH: B5 VHH with F29R, Y30S, T57L, Q103K
B15: B8^V31 (VHH)
VHH: B5 VHH with F29K, Y30S
B16: B8^V16 (VHH)
VHH: B5 VHH with Y30S, W47Q
B17: B8^V34 (VHH)
VHH: B5 VHH with F29R, Y30S, S62I

biological target: T1, human transferrin receptor (hTfR) fused to EGFP, on CHO cells (human, UniProt P02786 1-760); assay: apparent Kd, flow cytometry, CHO cells
T1 construct: whole, on cells; also called human TfR; CHO-hTfR-EGFP; not shown: EGFP from pEGFP-C1 vector, fused to the N-terminal (intracellular) end of hTfR
T1 sequence (P02786 whole entry, the tested form may be a part): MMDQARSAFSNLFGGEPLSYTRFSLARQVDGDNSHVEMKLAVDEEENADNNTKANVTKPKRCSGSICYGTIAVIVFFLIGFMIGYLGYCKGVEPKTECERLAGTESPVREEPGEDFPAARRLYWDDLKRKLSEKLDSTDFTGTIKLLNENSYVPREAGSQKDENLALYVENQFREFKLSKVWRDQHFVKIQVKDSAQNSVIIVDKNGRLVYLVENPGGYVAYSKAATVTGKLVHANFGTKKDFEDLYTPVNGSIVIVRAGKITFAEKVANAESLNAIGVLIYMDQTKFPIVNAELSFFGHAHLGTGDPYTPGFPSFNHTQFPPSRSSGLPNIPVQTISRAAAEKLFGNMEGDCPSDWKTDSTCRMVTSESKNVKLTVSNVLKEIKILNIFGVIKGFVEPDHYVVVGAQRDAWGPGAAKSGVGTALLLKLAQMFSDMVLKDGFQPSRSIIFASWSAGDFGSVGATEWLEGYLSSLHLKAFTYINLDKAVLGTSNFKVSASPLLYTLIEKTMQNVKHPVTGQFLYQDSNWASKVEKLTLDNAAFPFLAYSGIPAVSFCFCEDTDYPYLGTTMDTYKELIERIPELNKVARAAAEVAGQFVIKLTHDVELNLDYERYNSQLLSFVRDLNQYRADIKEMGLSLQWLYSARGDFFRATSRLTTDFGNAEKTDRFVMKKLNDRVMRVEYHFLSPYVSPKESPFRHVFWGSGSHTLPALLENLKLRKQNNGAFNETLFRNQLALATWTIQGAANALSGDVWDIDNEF
Method in brief: (§1)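 CHO cells expressing TfR-EGFP fusions, blocked in PBS/BSA 2%, then incubated with increasing VHH concentrations for 1 hr at 4° C. Bound VHH detected via anti-6His antibody and Alexa647 secondary, cells PFA-fixed, read by flow cytometry. Apparent Kd from nonlinear fit.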

Row | Kd | Binder
1 | 23 nM | B1
2 | 31 nM | B2
3 | 66 nM | B3
4 | 11 nM | B4
5 | 4.7 nM | B5
6 | 9 nM | B6
7 | 16 nM | B7
8 | 6.8 nM | B8
9 | 27 nM | B9
10 | 50 nM | B10
11 | 97 nM | B11
12 | 23 nM | B12
13 | 7.1 nM | B13
14 | 7.1 nM | B14
15 | 14 nM | B15
16 | 6.2 nM | B16
17 | 13 nM | B17

biological target: T2, mouse transferrin receptor (mTfR) fused to EGFP, on CHO cells (mouse, UniProt Q62351 1-763); assay: apparent Kd, flow cytometry, CHO cells
T2 construct: whole, on cells; also called mouse TfR; CHO-mTfR-EGFP; not shown: EGFP
T2 sequence (Q62351 whole entry, the tested form may be a part): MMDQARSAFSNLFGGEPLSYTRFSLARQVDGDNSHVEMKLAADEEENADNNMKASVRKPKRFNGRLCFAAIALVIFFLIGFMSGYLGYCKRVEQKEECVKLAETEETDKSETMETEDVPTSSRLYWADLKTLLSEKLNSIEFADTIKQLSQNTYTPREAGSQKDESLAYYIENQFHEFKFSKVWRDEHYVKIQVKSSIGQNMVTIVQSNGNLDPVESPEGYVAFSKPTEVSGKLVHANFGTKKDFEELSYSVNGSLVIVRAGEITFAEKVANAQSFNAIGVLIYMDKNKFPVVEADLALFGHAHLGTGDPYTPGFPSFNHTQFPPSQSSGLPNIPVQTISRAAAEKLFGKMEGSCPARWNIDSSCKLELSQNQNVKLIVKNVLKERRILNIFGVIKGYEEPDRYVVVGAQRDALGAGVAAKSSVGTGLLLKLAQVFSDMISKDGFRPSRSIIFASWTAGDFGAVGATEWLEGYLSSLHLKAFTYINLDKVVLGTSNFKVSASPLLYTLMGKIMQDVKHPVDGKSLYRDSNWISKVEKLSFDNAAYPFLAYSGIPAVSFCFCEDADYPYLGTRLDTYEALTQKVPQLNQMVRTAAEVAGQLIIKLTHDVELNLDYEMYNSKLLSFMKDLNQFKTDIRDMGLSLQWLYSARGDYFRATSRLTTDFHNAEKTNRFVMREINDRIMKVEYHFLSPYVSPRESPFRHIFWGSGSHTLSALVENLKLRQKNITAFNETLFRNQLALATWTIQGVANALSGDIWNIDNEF
Method in brief: as §1

Row | Kd | Binder
18 | 622 nM | B1
19 | 696 nM | B2
20 | 1740 nM | B3
21 | 445 nM | B4
22 | 743 nM | B5
23 | 1670 nM | B6
24 | 1290 nM | B7
25 | 760 nM | B8
26 | 891 nM | B9
27 | 230 nM | B10
28 | 582 nM | B11
29 | 1780 nM | B12
30 | 1210 nM | B13
31 | 513 nM | B14
32 | 1690 nM | B15
33 | 3.6 nM | B16
34 | 1070 nM | B17

biological target: T3, rhesus monkey transferrin receptor (rhTfR) fused to EGFP, on CHO cells (rhesus monkey); assay: apparent Kd, flow cytometry, CHO cells
T3 construct: whole, on cells; also called rhesus monkey TfR
Method in brief: as §1

Row | Kd | Binder
35 | 793 nM | B1
36 | 362 nM | B2
37 | 653 nM | B3
38 | 256 nM | B4
39 | 6.9 nM | B5
40 | 72 nM | B6
41 | 200 nM | B7
42 | 16 nM | B8
43 | 130 nM | B9
44 | 170 nM | B10
45 | 334 nM | B11
46 | 123 nM | B12
47 | 14 nM | B13
48 | 23 nM | B14
49 | 20 nM | B15
50 | 307 nM | B16
51 | 68 nM | B17

biological target: T4, mouse TfR ectodomain fused to a mouse IgG1 Fc fragment (mouse, UniProt Q62351 89-763); assay: SPR, kinetic
T4 construct: extracellular domain; not shown: mouse IgG1 Fc fragment
T4 sequence (Q62351 89-763): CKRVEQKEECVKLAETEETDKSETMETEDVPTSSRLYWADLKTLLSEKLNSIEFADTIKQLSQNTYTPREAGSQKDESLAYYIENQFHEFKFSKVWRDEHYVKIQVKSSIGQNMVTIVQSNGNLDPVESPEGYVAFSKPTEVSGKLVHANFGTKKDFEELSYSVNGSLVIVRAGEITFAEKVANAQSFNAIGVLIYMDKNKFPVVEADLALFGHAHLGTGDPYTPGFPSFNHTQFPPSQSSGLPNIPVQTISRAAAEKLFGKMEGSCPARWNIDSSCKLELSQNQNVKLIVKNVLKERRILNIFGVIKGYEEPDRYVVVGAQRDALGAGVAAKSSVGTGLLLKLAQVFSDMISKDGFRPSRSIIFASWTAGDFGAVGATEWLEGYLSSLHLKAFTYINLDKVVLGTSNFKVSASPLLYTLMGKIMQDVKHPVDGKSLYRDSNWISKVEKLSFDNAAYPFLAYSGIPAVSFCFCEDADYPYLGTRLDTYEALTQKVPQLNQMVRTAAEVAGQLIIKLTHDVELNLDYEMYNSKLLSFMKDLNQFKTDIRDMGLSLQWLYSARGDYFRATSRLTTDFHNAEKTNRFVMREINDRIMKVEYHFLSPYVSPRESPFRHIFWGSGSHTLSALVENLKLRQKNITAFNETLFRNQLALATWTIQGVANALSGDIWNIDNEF
Method: (§2) Binding properties of some VHHs were also evaluated using Surface Plasmon Resonance (SPR) experiments. The human, mouse and rhesus monkey TfR (having respectively GeneBank number NM_003234.2, NM_011638, NC_041755.1) ectodomains were fused to the N-terminal end of a mouse IgG1 Fc fragment and the recombinant proteins were produced and purified in-house. Interaction of VHHs with the receptors was tested using a Biacore T200 (GE Healthcare). Receptors were immobilized on an HC 1500M or a CM5 sensor chip (Xantec) either directly or on an anti-mouse IgG previously immobilized. VHHs were injected over flowcell by using the single-cycle kinetic or the multiple-cycle kinetic methods.

Row | Kd | koff | kon | Binder
52 | 301 nM | 0.075 s⁻¹ | 251000 M⁻¹ s⁻¹ | B1

biological target: T5, human TfR ectodomain fused to a mouse IgG1 Fc fragment (human, UniProt P02786 89-760); assay: SPR, kinetic
T5 construct: extracellular domain; ectodomain fused to the N-terminal end of the Fc, made in-house; not shown: mouse IgG1 Fc fragment
T5 sequence (P02786 89-760): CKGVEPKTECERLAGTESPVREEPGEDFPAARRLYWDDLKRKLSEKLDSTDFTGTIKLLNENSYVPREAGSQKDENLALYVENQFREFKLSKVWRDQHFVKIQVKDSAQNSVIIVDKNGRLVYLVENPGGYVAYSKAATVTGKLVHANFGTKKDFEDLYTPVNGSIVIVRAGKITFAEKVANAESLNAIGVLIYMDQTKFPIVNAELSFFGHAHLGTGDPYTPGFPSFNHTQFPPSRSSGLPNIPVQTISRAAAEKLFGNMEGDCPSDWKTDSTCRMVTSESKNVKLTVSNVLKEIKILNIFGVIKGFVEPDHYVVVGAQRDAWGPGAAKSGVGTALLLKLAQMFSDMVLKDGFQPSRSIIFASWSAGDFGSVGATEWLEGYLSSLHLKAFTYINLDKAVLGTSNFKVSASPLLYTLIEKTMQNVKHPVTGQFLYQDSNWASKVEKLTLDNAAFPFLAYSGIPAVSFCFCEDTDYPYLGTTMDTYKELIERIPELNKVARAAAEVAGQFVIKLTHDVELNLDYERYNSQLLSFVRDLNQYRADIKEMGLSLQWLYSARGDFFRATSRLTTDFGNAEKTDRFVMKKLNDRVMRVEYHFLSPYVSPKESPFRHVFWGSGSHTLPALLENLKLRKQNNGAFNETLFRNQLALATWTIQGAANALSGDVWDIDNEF
Method: as §2

Row | Kd | koff | kon | Binder
53 | 112 nM | 0.0399 s⁻¹ | 360000 M⁻¹ s⁻¹ | B1
54 | 94 nM | 0.03 s⁻¹ | 319000 M⁻¹ s⁻¹ | B2
55 | 35.8 nM | 0.0247 s⁻¹ | 692000 M⁻¹ s⁻¹ | B3
56 | 47.5 nM | 0.0182 s⁻¹ | 383000 M⁻¹ s⁻¹ | B4
57 | 0.984 nM | 0.00169 s⁻¹ | 1.04e+06 M⁻¹ s⁻¹ | B5
58 | 44 nM | 0.0169 s⁻¹ | 682000 M⁻¹ s⁻¹ | B6
59 | 39.1 nM | 0.0175 s⁻¹ | 448000 M⁻¹ s⁻¹ | B7
60 | 7.29 nM | 0.00722 s⁻¹ | 1.01e+06 M⁻¹ s⁻¹ | B8
61 | 33.3 nM | 0.019 s⁻¹ | 571000 M⁻¹ s⁻¹ | B9
62 | 46.2 nM | 0.0328 s⁻¹ | 710000 M⁻¹ s⁻¹ | B10
63 | 70.5 nM | 0.0493 s⁻¹ | 699000 M⁻¹ s⁻¹ | B11
64 | 32.2 nM | 0.0192 s⁻¹ | 596000 M⁻¹ s⁻¹ | B12
65 | 30.1 nM | 0.0126 s⁻¹ | 420000 M⁻¹ s⁻¹ | B13
66 | 20.6 nM | 0.0143 s⁻¹ | 698000 M⁻¹ s⁻¹ | B14
67 | 60.8 nM | 0.0221 s⁻¹ | 364000 M⁻¹ s⁻¹ | B15
68 | 12.8 nM | 0.0133 s⁻¹ | 1.03e+06 M⁻¹ s⁻¹ | B16
69 | 33.3 nM | 0.0244 s⁻¹ | 733000 M⁻¹ s⁻¹ | B17

biological target: T6, rhesus monkey TfR ectodomain fused to a mouse IgG1 Fc fragment (rhesus monkey, UniProt I0FKY7 89-760); assay: SPR, kinetic
T6 construct: extracellular domain; not shown: mouse IgG1 Fc fragment
Method: as §2

Row | Kd | koff | kon | Binder
70 | 373 nM | 0.192 s⁻¹ | 515000 M⁻¹ s⁻¹ | B2
71 | 358 nM | 0.266 s⁻¹ | 745000 M⁻¹ s⁻¹ | B3
72 | 234 nM | 0.123 s⁻¹ | 524000 M⁻¹ s⁻¹ | B4
73 | 12.1 nM | 0.0119 s⁻¹ | 997000 M⁻¹ s⁻¹ | B5
74 | 202 nM | 0.0942 s⁻¹ | 1.16e+06 M⁻¹ s⁻¹ | B6
75 | 90.5 nM | 0.0327 s⁻¹ | 362000 M⁻¹ s⁻¹ | B7
76 | 53.8 nM | 0.0206 s⁻¹ | 455000 M⁻¹ s⁻¹ | B8
77 | 73.4 nM | 0.0509 s⁻¹ | 693000 M⁻¹ s⁻¹ | B10
78 | 148 nM | 0.103 s⁻¹ | 700000 M⁻¹ s⁻¹ | B11
79 | 46.3 nM | 0.0255 s⁻¹ | 549000 M⁻¹ s⁻¹ | B12
80 | 32.7 nM | 0.0418 s⁻¹ | 1.28e+06 M⁻¹ s⁻¹ | B13
81 | 33.7 nM | 0.0303 s⁻¹ | 898000 M⁻¹ s⁻¹ | B14
82 | 32.1 nM | 0.0509 s⁻¹ | 1.59e+06 M⁻¹ s⁻¹ | B15
83 | 135 nM | 0.0438 s⁻¹ | 325000 M⁻¹ s⁻¹ | B16
84 | 51.5 nM | 0.102 s⁻¹ | 1.97e+06 M⁻¹ s⁻¹ | B17

biological target: T5, human TfR ectodomain fused to a mouse …; assay: SPR, at equilibrium
Method: as §2

Row | Kd | Binder
85 | 115 nM | B1
86 | 112 nM | B2
87 | 38.6 nM | B3
88 | 64.8 nM | B4
89 | 21.8 nM | B6
90 | 40.3 nM | B7
91 | 3.22 nM | B8
92 | 39.2 nM | B9
93 | 46.5 nM | B10
94 | 75.5 nM | B11
95 | 35.8 nM | B12
96 | 36.5 nM | B13
97 | 23.9 nM | B14
98 | 63.8 nM | B15
99 | 76.3 nM | B16
100 | 32.4 nM | B17

biological target: T6, rhesus monkey TfR ectodomain fused to a …; assay: SPR, at equilibrium
Method: as §2

Row | Kd | Binder
101 | 339 nM | B2
102 | 265 nM | B3
103 | 242 nM | B4
104 | 25.1 nM | B5
105 | 100 nM | B6
106 | 93.3 nM | B7
107 | 36.8 nM | B8
108 | 206 nM | B9
109 | 86 nM | B10
110 | 175 nM | B11
111 | 55.4 nM | B12
112 | 35.1 nM | B13
113 | 34.4 nM | B14
114 | 35.4 nM | B15
115 | 222 nM | B16
116 | 49.4 nM | B17
